Measurements as given in paper PMC7337902.

Target: HRP2 (hepatoma-derived growth factor-related protein 2) IBD (UniProt Q7Z4V5)
Experiment: biotin-peptide streptavidin pull-down, GST blot
Settings: reference: unphosphorylated IBM peptide; sites S323

Sequence of UniProt Q7Z4V5 (Q7Z4V5 whole entry, looked up): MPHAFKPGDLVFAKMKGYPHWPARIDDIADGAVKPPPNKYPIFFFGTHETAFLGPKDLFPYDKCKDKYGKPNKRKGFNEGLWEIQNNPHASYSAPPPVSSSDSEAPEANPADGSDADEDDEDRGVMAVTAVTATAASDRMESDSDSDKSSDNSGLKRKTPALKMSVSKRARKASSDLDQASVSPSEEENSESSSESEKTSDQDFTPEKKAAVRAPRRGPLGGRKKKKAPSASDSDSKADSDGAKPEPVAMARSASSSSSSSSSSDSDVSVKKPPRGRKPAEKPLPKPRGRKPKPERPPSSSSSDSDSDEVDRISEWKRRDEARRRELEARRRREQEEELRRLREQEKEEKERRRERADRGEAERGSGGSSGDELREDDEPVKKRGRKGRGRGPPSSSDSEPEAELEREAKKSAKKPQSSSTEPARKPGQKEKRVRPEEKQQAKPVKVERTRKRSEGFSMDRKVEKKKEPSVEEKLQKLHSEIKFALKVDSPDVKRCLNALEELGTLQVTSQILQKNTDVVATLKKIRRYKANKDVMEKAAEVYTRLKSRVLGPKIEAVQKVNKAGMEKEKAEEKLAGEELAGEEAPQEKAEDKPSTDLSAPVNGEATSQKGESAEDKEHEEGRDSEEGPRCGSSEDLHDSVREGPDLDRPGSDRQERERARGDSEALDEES

“DPF3a (BAF45c) IBM peptide (from UniProt Q92784-2) pS323 IBM peptide” was tested, and the “binding against the reference” value was “stronger”.
